B1: GFP-FIP200 C-terminal region (CTR), residues 1429–1591 (protein)
chain: ADEGRVDSAMETSMMSVQENIHMLSEEKQRIMLLERTLQLKEEENKRLNQRLMSQSMSSVSSRHSEKIAIRDFQVGDLVLIILDERHDNYVLFTVSPTLYFLHSESLPALDLKPASGASRRPWVLGKVMEKEYCQAKKAQNRFKVPLGTKFYRVKAVSWNKKV
B2: GFP-tagged TBK1 (protein)
chain: MQSTSNHLWLLSDILGQGATANVFRGRHKKTGDLFAIKVFNNISFLRPVDVQMREFEVLKKLNHKNIVKLFAIEEETTTRHKVLIMEFCPCGSLYTVLEEPSNAYGLPESEFLIVLRDVVGGMNHLRENGIVHRDIKPGNIMRVIGEDGQSVYKLTDFGAARELEDDEQFVSLYGTEEYLHPDMYERAVLRKDHQKKYGATVDLWSIGVTFYHAATGSLPFRPFEGPRRNKEVMYKIITGKPSGAISGVQKAENGPIDWSGDMPVSCSLSRGLQVLLTPVLANILEADQEKCWGFDQFFAETSDILHRMVIHVFSLQQMTAHKIYIHSYNTATIFHELVYKQTKIISSNQELIYEGRRLVLEPGRLAQHFPKTTEENPIFVVSREPLNTIGLIYEKISLPKVHPRYDLDGDASMAKAITGVVCYACRIASTLLLYQELMRKGIRWLIELIKDDYNETVHKKTEVVITLDFCIRNIEKTVKVYEKLMKINLEAAELGEISDIHTKLLRLSSSQGTIETSLQDIDSRLSPGGSLADAWAHQEGTHPKDRNVEKLQVLLNCMTEIYYQFKKDKAERRLAYNEEQIHKFDKQKLYYHATKAMTHFTDECVKKYEAFLNKSEEWIRKMLHLRKQLLSLTNQCFDIEEEVSKYQEYTNELQETLPQKMFTASSGIKHTMTPIYPSSNTLVEMTLGMKKLKEEMEGVVKELAENNHILERFGSLTMDGGLRNVDCL
B3: mCherry-WIPI3 (protein)
chain: not shown
B4: mCherry-tagged WIPI1 (protein)
chain: MEAEAADAPPGGVESALSCFSFNQDCTSLATGTKAGYKLFSLSSVEQLDQVHGSNEIPDVYIVERLFSSSLVVVVSHTKPRQMNVYHFKKGTEICNYSYSSNILSIRLNRQRLLVCLEESIYIHNIKDMKLLKTLLDIPANPTGLCALSINHSNSYLAYPGSLTSGEIVLYDGNSLKTVCTIAAHEGTLAAITFNASGSKLASASEKGTVIRVFSVPDGQKLYEFRRGMKRYVTISSLVFSMDSQFLCASSNTETVHIFKLEQVTNSRPEEPSTWSGYMGKMFMAATNYLPTQVSDMMHQDRAFATARLNFSGQRNICTLSTIQKLPRLLVASSSGHLYMYNLDPQDGGECVLIKTHSLLGSGTTEENKENDLRPSLPQSYAATVARPSASSASTVPGYSEDGGALRGEVIPEHEFATGPVCLDDENEFPPIILCRGNQKGKTKQS

Columns and labels:
[1] = molecular target: NIX(1–182)-GST (Homo sapiens (Human), UniProt O60238); assay: microscopy-based bead assay
[2] = molecular target: GST-FAM134C (residues 250–466) (Homo sapiens (Human), UniProt Q86VR2); assay: microscopy-based bead assay
GST-FAM134C (residues 250–466), sequence (Q86VR2 250-466): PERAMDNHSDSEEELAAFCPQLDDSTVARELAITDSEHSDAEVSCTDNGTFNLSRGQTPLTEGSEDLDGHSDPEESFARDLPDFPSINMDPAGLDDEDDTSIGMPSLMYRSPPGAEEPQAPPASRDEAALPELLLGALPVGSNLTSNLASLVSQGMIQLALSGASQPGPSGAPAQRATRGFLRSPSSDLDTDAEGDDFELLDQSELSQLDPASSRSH

NIX(1–182)-GST, sequence (O60238 1-182): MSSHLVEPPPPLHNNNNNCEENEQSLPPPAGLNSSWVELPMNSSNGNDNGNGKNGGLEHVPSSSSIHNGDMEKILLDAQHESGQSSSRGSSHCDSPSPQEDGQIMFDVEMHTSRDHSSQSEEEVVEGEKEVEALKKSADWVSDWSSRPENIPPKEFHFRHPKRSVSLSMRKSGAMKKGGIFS

binding result [1]	binding result [2]	Binder
no binding	binds	B1
no binding		B2
no binding		B3
binds		B4

From article PMC12339401 (2025)
